# Measured values published in the supplement of paper PMC7125110.
# ± gives the standard error. Variants at the floor of the assay were thinned out.
# B1: glmS ribozyme (parent)
# chain: AUAAAAGCGCCAGAACUACAGAAAUGUAGUUGACGAGGAGGAGGUUUAUCGAAUUUUCGGCGGAUGCCUCCAAA
# Experiments:
# Conditions in all cases: with glucosamine-6-phosphate
# [1] = variants of: B1; assay: self-cleavage kobs at 160 uM GlcN6P; higher = faster cleavage; RNA array
# Summary of the method: (§1)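 Over ~14 h at 37 °C, tiles were imaged as glucosamine-6-phosphate (40 μM to 10 mM) in HEPES/KCl/Mg(OAc)2 buffer flowed across sequenced MiSeq chips. The chips carried barcoded ribozyme variants transcribed in situ by E. coli RNA polymerase and tracked with a hybridised Cy3 probe. After normalisation to baseline and to non-cleaving reference variants, one- or two-exponential decay fits of per-tile medians gave kobs. kcat and KM followed from weighted Michaelis–Menten fits across concentrations.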
# [2] = variants of: B1; assay: self-cleavage kobs at 640 uM GlcN6P; higher = faster cleavage; RNA array
# Summary of the method: as §1
# [3] = variants of: B1; assay: self-cleavage kobs at 2500 uM GlcN6P; higher = faster cleavage; RNA array
# Summary of the method: as §1
# [4] = variants of: B1; assay: self-cleavage kobs at 10000 uM GlcN6P; higher = faster cleavage; RNA array
# Summary of the method: as §1
Variant,self-cleavage kobs at 160 uM GlcN6P [1] [s⁻¹],self-cleavage kobs at 640 uM GlcN6P [2] [s⁻¹],self-cleavage kobs at 2500 uM GlcN6P [3] [s⁻¹],self-cleavage kobs at 10000 uM GlcN6P [4] [s⁻¹]
G43U U49A A52U,< 1e-05,< 1e-05,< 1e-05,
G35U C58A C71G,< 1e-05,< 1e-05,,
A39U A53G C71A,0.000185 ± 3.5e-05,,0.00139 ± 0.00042,0.00323 ± 0.00089
A42C U47A,< 1e-05,,< 1e-05,
A36C U54C,< 1e-05,,,< 1e-05
G35C G40C U47A G62U,< 1e-05,< 1e-05,,
A42C A64G C68U,< 1e-05,< 1e-05,< 1e-05,
G44U G59U,< 1e-05,< 1e-05,< 1e-05,< 1e-05
A48C C61G,< 1e-05,< 1e-05,< 1e-05,< 1e-05
G38A A42U A52U C68A,< 1e-05,< 1e-05,< 1e-05,
C34A G41A C71U,< 1e-05,,,
G44C U54A C68U,< 1e-05,,,
A33U C34A C58U,< 1e-05,,< 1e-05,
A42U U49A,< 1e-05,< 1e-05,< 1e-05,< 1e-05
G35A G63C,< 1e-05,< 1e-05,< 1e-05,
G38C U49G,< 1e-05,< 1e-05,< 1e-05,
G38U G60U,< 1e-05,< 1e-05,,
G35U G37C,< 1e-05,< 1e-05,< 1e-05,
C34A G63A,< 1e-05,< 1e-05,< 1e-05,
G40A U47C,0.000162 ± 4.2e-05,,,0.00144 ± 0.00069
A42U U47A C70G,< 1e-05,< 1e-05,,
G37A G43C,< 1e-05,,< 1e-05,
A33U A48G,< 1e-05,< 1e-05,< 1e-05,
G38C A48G G60U,< 1e-05,< 1e-05,< 1e-05,
C34U G41A,< 1e-05,< 1e-05,< 1e-05,< 1e-05

Variant,self-cleavage kobs at 160 uM GlcN6P [1] [s⁻¹],self-cleavage kobs at 640 uM GlcN6P [2] [s⁻¹],self-cleavage kobs at 2500 uM GlcN6P [3] [s⁻¹],self-cleavage kobs at 10000 uM GlcN6P [4] [s⁻¹]
G41A C67U,< 1e-05,< 1e-05,< 1e-05,
A39C C50G,< 1e-05,< 1e-05,,
G37A A39C U47C C71U,< 1e-05,,3.22e-05 ± 1.4e-05,
A39C U47A C50A U56C,< 1e-05,,< 1e-05,
G35A U56G A64G,< 1e-05,,< 1e-05,< 1e-05
U45A C67G C68A,7.91e-05 ± 1.9e-05,0.000177 ± 4.1e-05,0.000173 ± 4.7e-05,
G41U C58U,< 1e-05,< 1e-05,,
G35A A39C,< 1e-05,< 1e-05,< 1e-05,< 1e-05
G43C C50A C58U,< 1e-05,< 1e-05,< 1e-05,
C34G G40C A48G U49G C71U,< 1e-05,< 1e-05,< 1e-05,< 1e-05
G35U A64G,< 1e-05,< 1e-05,< 1e-05,
U45G G66A,0.0029 ± 0.00042,0.00605 ± 0.0014,0.0257 ± 0.0093,
A36G G38U C61U G66U,< 1e-05,,,
A33U G44C A52U,< 1e-05,,< 1e-05,
A42U G44C A52C,< 1e-05,< 1e-05,,
G43C U49G,< 1e-05,< 1e-05,< 1e-05,< 1e-05
U47A U65A,0.000347 ± 7.5e-05,0.00132 ± 0.00027,0.00331 ± 0.00064,
C34A G44U A53C U55G,< 1e-05,,,
G40U G60A C70A,< 1e-05,,< 1e-05,
G43U G62U C67U,< 1e-05,< 1e-05,,
C34A U45A C70U,< 1e-05,< 1e-05,< 1e-05,
G41A A53G,0.000343 ± 7e-05,0.000842 ± 0.00015,0.00129 ± 0.00028,0.00427 ± 0.00084
G38U C58U C68A,7.38e-05 ± 3.4e-05,0.00022 ± 8.3e-05,6.21e-05 ± 3.1e-05,
G43U A53C G62U,< 1e-05,,< 1e-05,
A39C G59U C61A,< 1e-05,,,

Variant,self-cleavage kobs at 160 uM GlcN6P [1] [s⁻¹],self-cleavage kobs at 640 uM GlcN6P [2] [s⁻¹],self-cleavage kobs at 2500 uM GlcN6P [3] [s⁻¹],self-cleavage kobs at 10000 uM GlcN6P [4] [s⁻¹]
G38U G40C G41C,< 1e-05,< 1e-05,< 1e-05,
G44C G59A,< 1e-05,< 1e-05,< 1e-05,< 1e-05
G35U A36U G37U G66U,< 1e-05,,,
G44C G62C G66A,< 1e-05,< 1e-05,,
G37C U47A,< 1e-05,,,4.38e-05 ± 1.1e-05
A39G G62U,< 1e-05,< 1e-05,< 1e-05,
G41A C50A,< 1e-05,< 1e-05,< 1e-05,< 1e-05
A42C U54G,< 1e-05,,,
A42U A53G A64C,< 1e-05,< 1e-05,,
U46G U57G,< 1e-05,< 1e-05,,
G40C G43U G66U,< 1e-05,< 1e-05,< 1e-05,
C34U G37C,< 1e-05,,,< 1e-05
C34G U49G A53G G63C,< 1e-05,< 1e-05,,
G35U G43A,< 1e-05,,< 1e-05,< 1e-05
G37C G44A U49A C68U,< 1e-05,,< 1e-05,
G38U C58U G63U,< 1e-05,,,
G41U A48U U49G,< 1e-05,< 1e-05,< 1e-05,
A42G U46G C67U,0.000274 ± 8.3e-05,,0.00148 ± 0.00058,
U45G C58G G59A,< 1e-05,,< 1e-05,
A42C A64U,< 1e-05,< 1e-05,< 1e-05,< 1e-05
A42U A52G C68G,< 1e-05,,< 1e-05,
G35A C68U C70G,< 1e-05,< 1e-05,< 1e-05,
A36C G51C,< 1e-05,,,< 1e-05
G35A U46G,< 1e-05,< 1e-05,< 1e-05,
G43C C61A,< 1e-05,< 1e-05,< 1e-05,< 1e-05

Variant,self-cleavage kobs at 160 uM GlcN6P [1] [s⁻¹],self-cleavage kobs at 640 uM GlcN6P [2] [s⁻¹],self-cleavage kobs at 2500 uM GlcN6P [3] [s⁻¹],self-cleavage kobs at 10000 uM GlcN6P [4] [s⁻¹]
G38U A42U U56G,< 1e-05,< 1e-05,,< 1e-05
G41A U47A G62C,< 1e-05,< 1e-05,< 1e-05,
C34A C67G C68A,6.53e-05 ± 1.9e-05,6.33e-05 ± 2e-05,0.000284 ± 8.7e-05,
A36C G38C G63A,< 1e-05,,,
G38A G41U U56G,< 1e-05,< 1e-05,< 1e-05,
C34A U54A,< 1e-05,,< 1e-05,
G41U G63A C71U,< 1e-05,,,
C34G G59C,< 1e-05,< 1e-05,,< 1e-05
C34U G51C,< 1e-05,< 1e-05,< 1e-05,< 1e-05
A42U A52C A53G,< 1e-05,,,
C34G A53G C68G,0.000101 ± 2.4e-05,0.000115 ± 2.5e-05,8.44e-05 ± 3.6e-05,
C34U U49G,< 1e-05,,< 1e-05,< 1e-05
A33U A53U U69G,3.89e-05 ± 1.8e-05,0.000215 ± 7.6e-05,5.61e-05 ± 2.6e-05,
A33G A52G U56A,< 1e-05,,,< 1e-05
C34A U47C A48C,< 1e-05,,,
A39C U69A,< 1e-05,< 1e-05,,
U46G A53U U65G,4.57e-05 ± 1.6e-05,0.000379 ± 9.9e-05,0.000976 ± 0.00018,
A36G G44A U55C U65G,< 1e-05,< 1e-05,< 1e-05,
G44U C50A C68G,< 1e-05,,< 1e-05,
A33U U45G,< 1e-05,,,3.8e-05 ± 7.6e-06
A42G C61A C67A,0.000467 ± 0.00018,,,
A39C G43C,< 1e-05,< 1e-05,,< 1e-05
A33G G44U,< 1e-05,< 1e-05,,< 1e-05
G41U G43U G51U,< 1e-05,,< 1e-05,
